In general, stoichiometry N refers to the number of molecules, sites or subunits per partner or assembly. As usually defined, the Kd is the concentration at which binding is half-saturated.

Like-named read-outs stand apart in the source and are kept apart here.

Assay [1] has as its target T1, CIB2, wild type, Trx-His6 tag removed (mouse, UniProt Q9Z309 1-187).
T1 sequence: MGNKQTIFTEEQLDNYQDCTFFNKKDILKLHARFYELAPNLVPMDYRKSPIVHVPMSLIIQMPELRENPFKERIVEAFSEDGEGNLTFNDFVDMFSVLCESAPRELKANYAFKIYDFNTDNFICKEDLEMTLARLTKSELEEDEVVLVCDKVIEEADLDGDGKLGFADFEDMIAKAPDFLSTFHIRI
Nature of the assay: SEC-MALS.

Assay [2] addresses T2, CIB2 (calcium and integrin-binding protein 2), wild type (mouse, UniProt Q9Z309 1-187).
T2 sequence: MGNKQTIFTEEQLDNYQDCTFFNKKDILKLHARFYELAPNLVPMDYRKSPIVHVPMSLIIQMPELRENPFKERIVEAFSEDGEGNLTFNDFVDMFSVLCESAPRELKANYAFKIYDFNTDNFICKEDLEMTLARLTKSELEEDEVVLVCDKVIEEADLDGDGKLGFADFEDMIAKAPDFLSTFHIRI
Nature of the assay: ITC.

The next assay deals with T3, CIB2-DD157/161AA (mouse, UniProt Q9Z309 1-187, DD157/161AA | DD157/161AA).
T3 sequence: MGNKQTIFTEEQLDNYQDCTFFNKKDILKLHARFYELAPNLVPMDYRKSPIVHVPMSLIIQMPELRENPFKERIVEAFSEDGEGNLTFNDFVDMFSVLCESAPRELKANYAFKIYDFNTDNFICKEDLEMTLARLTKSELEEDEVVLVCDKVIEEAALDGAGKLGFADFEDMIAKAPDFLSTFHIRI
The experiment in a line: ITC. (Isothermal titration calorimetry measures the heat released or taken up as one component is titrated into another.)

For another assay, the target named is T4, CIB2-DD116/120AA (mouse, UniProt Q9Z309 1-187, DD116/120AA | DD116/120AA).
T4 sequence: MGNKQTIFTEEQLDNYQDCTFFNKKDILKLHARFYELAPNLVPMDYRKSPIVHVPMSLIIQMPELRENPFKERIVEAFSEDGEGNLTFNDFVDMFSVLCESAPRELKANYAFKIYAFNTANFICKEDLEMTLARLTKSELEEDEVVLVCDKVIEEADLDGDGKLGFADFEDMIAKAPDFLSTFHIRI
The experiment in a line: ITC.

Assay [3] concerns the target T2, CIB2 (calcium and integrin-binding …). Nature of the assay: ITC. The source holds these as a separate data set.
Assay [4] concerns the target T1, CIB2, wild type, Trx-His6 tag removed. Nature of the assay: SEC-MALS. This is another data set of the same source.
In the next assay the target is T5, CIB2-E141N (mouse, UniProt Q9Z309 1-187, E141N).
T5 sequence: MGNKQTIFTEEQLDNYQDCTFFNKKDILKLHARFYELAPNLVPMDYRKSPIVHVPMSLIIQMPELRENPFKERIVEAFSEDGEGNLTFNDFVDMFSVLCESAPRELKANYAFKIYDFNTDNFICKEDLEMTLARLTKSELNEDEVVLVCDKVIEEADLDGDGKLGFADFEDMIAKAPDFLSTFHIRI
The experiment in a line: crystal structure.

Turning to KGQKAANLDLKKKMKQQALENKMRNKKMAAARAAAAAGGQ (domain or fragment, mouse, UniProt Q8R4P5 718-757, looked up) [TMC1 CR3 (amino acids 718-757) as used in SEC-MALS], the “stoichiometry N” value in assay [1] was determined as 1.

With KGQKAANLDLKKKMKQQALENKMRNKKMAAARAAAAAGGQ (domain or fragment, mouse, UniProt Q8R4P5 718-757, looked up) [TMC1 cytosolic region 3 (CR3, amino acids 718-757)], the Kd in assay [2] is approximately 43400 nM.

With EELERLKALLDENRQMIATVKCKPWKMEKKIEVLKEAKKFVSENEGALGK (domain or fragment, mouse, UniProt Q8R4P5 81-130, looked up) [TMC1 cytosolic region 1 (CR1, amino acids 81-130)], the figures for the “fold decrease of binding against CIB2 WT” value in the assay with CIB2-DD157/161AA and with CIB2-DD116/120AA were approximately 50 fold and approximately 150 fold, respectively. Also, the results for the Kd in assay [3] and in assay [2] were approximately 74 nM and approximately 870 nM, respectively.

As to EELERLKALLDENRQMIATVKCKPWKMEKKIEVLKEAKKFVSENEGALGK (domain or fragment, mouse, UniProt Q8R4P5 81-130, looked up) [TMC1 CR1 (amino acids 81-130), Trx-His6 tag removed], the “stoichiometry N” value in assay [4] stood at 1. Also, the binding result with CIB2-E141N is “binds”.

B1: TMC1 cytosolic region 2 (CR2, amino acids 298-352) with MBP tag (domain or fragment, mouse, UniProt Q8R4P5 298-352, looked up)
chain: GGGDDNTFNFSWKVFCSWDYLIGNPETADNKFNSITMNFKEAIIEERAAQVEENI
Consider B1, for which the Kd in assay [3] is approximately 480 nM; in assay [2] it was approximately 10800 nM.

B2: TMC1 CR2 (amino acids 298-352) as used in SEC-MALS (domain or fragment, mouse, UniProt Q8R4P5 298-352, looked up)
chain: GGGDDNTFNFSWKVFCSWDYLIGNPETADNKFNSITMNFKEAIIEERAAQVEENI
In the case of B2, the “stoichiometry N” value in assay [4] was found to be 1.

Source of the values: paper doi:10.1101/2024.07.24.604958 (bioRxiv, 2024).
